Measured values reported in patent publication US11166479B2, “Feedstuffs for aquaculture comprising stearidonic acid” (COMMONWEALTH SCIENTIFIC AND INDUSTRIAL RESEARCH ORGANISATION, priority 2005, dated 2021).

Tested on: yeast strain S288Cα
Assay: Heterologous expression of E. plantagineum Δ6-desaturase gene in yeast, conversion of fed fatty acids
Type: cell-based
Details: 20° C., 2-3 days
Experimental: Expression experiments in yeast were carried out to confirm that the cloned E. platangineum gene (cDNA sequence provided as SEQ ID NO:25) encoded a Δ6-desaturase enzyme. The gene fragment was inserted as an XbaI-SacI fragment into the […] sites of the yeast expression vector pSOS (Stratagene) containing the constitutive ADH1 promoter, resulting in plasmid pXZP271. This was transformed into yeast strain S288Cα by a heat shock method and transformant colonies selected by plating on minimal media plates. For the analysis of enzyme activity, 2 mL yeast clonal cultures were grown to an O.D.600 of 1.0 in yeast minimal medium in the presence of 0.1% NP-40 at 30° C. with shaking. Precursor free-fatty acids, either linoleic or linolenic acid as 25 mM stocks in ethanol, were added so that the final concentration of fatty acid was 0.5 mM. The cultures were transferred to 20° C. and grown for 2-3 days with shaking. Yeast cells were harvested by repeated centrifugation and washing first with 0.1% NP-40, then 0.05% NP-40 and finally with water. Fatty acids were extracted and analyzed. The peak identities of fatty acids were confirmed by GC-MS.

B1: EplD6Des: Δ6 desaturase from Echium plantagineum, polypeptide of 438 amino acid residues, expressed in yeast from plasmid pXZP271 (protein, listed as Echium plantagineum)
chain: MANAIKKYITAEELKKHDKAGDLWISIQGKIYDVSDWLKDHPGGNFPLLSLAGQEVTDAFVAFHSGTTWKLLEKFFTGYYLKDYSVSEVSKDYRKLVFEFNKMGLFDKKGHIVLVTVLFIAMLFGMSVYGVLFCEGVLVHLLAGGLMGFVWIQSGWIGHDAGHYIVMPDARLNKLMGIVAANCLSGISIGWWKWNHNAHHIACNSLDYDPDLQYIPFLVVSSKLFSSLTSHFYEKKLTFDSLSRFFVSHQHWTFYPVMCMARVNMFVQSLIMLLTKRNVFYRSQELLGLVVFWIWYPLLVSCLPNWGERVMFVVASLSVTGMQQVQFSLNHFSSSVYVGQPKGNDWFEKQTCGTLDISCPSWMDWFHGGLQFQVEHHLFPKLPRCHLRKISPFVMELCKKHNLSYNCASFSEANNMTLRTLRDTALQARDLTKPLPKNLVWEALNTHG
In the case of B1, the “LA converted to GLA” value (0.5 mM linoleic acid fed) is reported as “Around 2.9%” and the “ALA converted to SDA” value (0.5 mM linolenic acid fed) is reported as about 2.3%.
